Data set [1] addresses T1, N (ancestral) (SARS-CoV-2 (Wuhan-Hu-1), UniProt P0DTC9 1-419). Nature of the data set: SV-AUC, mass photometry; […], pH 7.50 ([…], pH 7.4; temperature not given. The conditions noted are these: protein: recombinant; tags: 6xHis-TEV, cleaved; chain copies: 2; hairpin.
In data set [2] the target is T1, N (ancestral). Nature of the data set: SV-AUC; […], pH 7.50 ([…], pH 7.4; temperature not given. The conditions noted are these: protein: recombinant; tags: 6xHis-TEV, cleaved; chain copies: 2; single strand.

For ACGUGGCUUUGGAGACUCCGUGGAGGAGGUCUUAUCAGAGGCACGU (structured_RNA) [SL7], in the data set with N (ancestral) [1], the binding result is on record as “binds”. Turning to TTTTTTTTTT (ssDNA) [T10], the binding result with N (ancestral) [2] is given as “binds”.

Values taken from publication PMC12753105.
